From article PMC7703470 (Biosensors & Bioelectronics, 2020) come the findings set out here.

First the molecules themselves.
B1: 12H8 scFv-Fc antibody (scFv, V domains shown)
VH: AVTLDESGGGLQTPGGGLSLVCKASGFTFSNYGMDWVRQAPGKGLEWVAGIDNDGSGRGYGAAVKGRATISRDNGQSTVRLQLNNLRAEDTATYYCAKSTYGGRGCCDTTDAWGHGTEVIVSS
VL: LTQPSSVSANPGETVKITCSGGGSWYGWFQQKSPGSAPVTVINANTNRPSDIPSRFSGSKSGSTGTLTITGVQADDEAVYFCGSYDSSTDSGIFGAGTTLTVL
B2: 12B3 scFv-Fc antibody (scFv, V domains shown)
VH: AVTLDESGGGLRTPRGALSLVCKASGFSFSDHGMAWVRQAPGKGLEWVAGISSGGSGTEYGAAVKGRATISRDNGQSTVRLQLNNLRAEDTGTYYCAKTTSPYCGWSGSLDYDCGAEDIDAWGHGTEVIVSS
VL: LTQPSSVSANLGETVKITCSGDSNYYGWYQQKSPGSAPVTVIYDNAKRPSNIPSRFSGSKSGSTNTLTITGVQAEDEAVYFCGGWDSDTGTFGAGTTLTVL
B3: 12H1 scFv-Fc antibody (scFv, V domains shown)
VH: AVTLDESGGGLQTPGGTLSLVCKASGFTFSDRGMHWVRQAPGKGLEWVAGIRGDGSYTDYAPAVKGRATISRDNGQSTVRLQLNNLRAEDTATYYCAKSSYKCSTWSCRGYESDSIDAWGHGTEVIVSS
VL: LTQPSSVSANLGGTVKMTCSGGSSGYGWYQQKSPGSAPVTLIYYNDKRPSGIPSRFSGSKSDSTGTLTITGVQAEDEAVYYCGNTDSSYVGMFGAGTTLTVL
B4: 1G5 scFv-Fc antibody (scFv, V domains shown)
VH: AVTLDESGGGLQTPGGALSLVCKASGFTFSSYGMFWVRQAPGKGLEFVASITNTGSYTTYGAAVEGRATISRDNGQSTVRLQLNNLRAEDTAIYYCAKTSCNNCGWSGPGYIDAWGHGTEVIVSS
VL: LTQPSSVSANLGGTVKITCSGGGNDYGWYQQKAPGSAPVTVINTNDKRPSDIPSRFSGSKSGSTATLTITGVQAEDEAVYFCGAYDSSTSADIFGAGTTLTVL

This test has as its target SARS-CoV-2 nucleocapsid protein (NP) (Severe acute respiratory syndrome …, UniProt P0DTC9). The experiment in a line: BLI.
The molecule B1 registered a Kd of 1.31 nM. This counts as single-digit nanomolar. Molecule B2 came in with a Kd of 8.47 nM. The figure for B3 is 18.3 nM. The figure for B4 is 2.86 nM.
